Experimental data as given in patent US12303551B2, “Cellular immunotherapy compositions and uses thereof” (CERO THERPEUTICS HOLDINGS, INC., priority 2018, dated 2025).

Legend:
[1] = system: HCC827 adenocarcinoma cells; assay: HCC827 xenograft in NSG mice with osimertinib, bioluminescence imaging and immunofluorescence; format: in vivo
Protocol: Growth of HCC827/luceriferase^+ cells in NSG mice upon adoptive transfer of purified hCER122 modified CD4+ T cells or hCER122 modified CD+ T cells with concomitant targeted inhibitor therapy was measured by bioluminescence imaging. Data represents mean values (n=5 mice/treatment group).
Tumor specimens were stained with anti-EGFR (tumor antigen), anti-CD4, anti-PD1, and DAPI counter-stain (left image).
CD3+ or CD4+ T cells were purified from PBMCs, activated, and transduced with lentiviral vector comprising hCER122 nucleic acid. hCER122 is a human CER122 construct comprising a Tim4 binding domain, a Tim4 transmembrane domain, TLR2 engulfment signaling domain, and Dap12 engulfment signaling domain and comprises an amino acid sequence of SEQ ID NO:179. Transduced T cells were expanded. hCER122 modified CD3+ T cells (2.5×10^6 or 5×10^6) or hCER122 modified CD4+ T cells (2.5×10^6 or 5×10^6) were infused into NSG mice engrafted with HCC827 adenocarcinoma cells (2 million/mouse). HCC827 xenograft mice also received 1 mg/kg osimertinib post-engraftment. […] Microscopy images of immunofluorescence stained tumor cells from HCC827 xenograft model at day 16. Tumor specimens were stained with anti-EGFR (tumor antigen), anti-CD4, anti-PD1, and DAPI counter-stain.

[2] = system: HPV+ SCC152/luceriferase+ cells; assay: SCC152/luciferase xenograft in NSG mice, bioluminescence imaging; format: in vivo; settings: E7 TCR CD8+ T cells + mock transduced CD4+ T cells; compared to untreated controls
Protocol: HPV+ SCC152 engrafted NSG mice were treated with HPV E7 TCR modified CD8+ T cells+CD4+ T cells (mock transduced), HPV E7 TCR modified CD8+ T cells+hCER104 modified CD4+ T cells, or untreated. FIG. 74B is a graph of mean values of bioluminescence signal intensities obtained for treatment group.
HPV+ SCC152/luceriferase^+ cells were engrafted in NSG mice. Once tumors were established, mice were treated with HPV E7 specific TCR (SEQ ID NO:84) modified CD8+ T cells+mock transduced CD4+ T cells, HPV E7 specific TCR modified CD8+ T cells+hCER104 (SEQ ID NO:176) modified CD4+ T cells, or untreated (n=5 per treatment group). HPV E7 CD8+ T cells and hCER104 CD4+ T cells were administered at a 1:1 ratio. Tumor volume was measured over time by bioluminescence imaging (see, FIGS. 74A-74B).

SCC152 cells = assay: Magnitude breadth analysis of phagocytosis by CER type (pHrodo red / CELLTRACE violet microscopy); format: cell-based; settings: CD4+ T cells, pHrodo red stained SCC152
Protocol: Top image is an enlargement of a cell in the lower left image showing a SCC152 cell engulfed by CER126-transduced CD4+ T cell. […] White arrow indicates CD8+ T cell transduced with E7-specific TCR and that is pHrodo Red negative (lower left panel of FIG. 60B). Software rendition of phagocytosis (lower right panel of FIG. 60B).
Various CER-modified CD4+ T cells were also evaluated for breadth of response to determine whether a particular CER confers a broad phagocytic response of low magnitude (e.g., 10% engulfment in 90% of cells) or a less frequent but strong phagocytic response (e.g., 90% engulfment in 10% of cells) in the host cells. CD8+ T cells were transduced with HPV16 E7 specific TCR as described in Example 1. CD4+ T cells were transduced with lentiviral vectors comprising a CER21, CER27, CER104, CER116, or CER117 nucleic acid. Mock-transduced (vector alone) CD4+ T cell were used as control. CD4+/CER+ and CD8+/E7 TCR+ T cells were stained with CELLTRACE violet. HPV16 E7+ head and neck squamous cell carcinoma cells (SCC152) were stained with pHrodo red. HPV16 E7 TCR transduced CD8+ T cells and selected CER transduced CD4+ T cells were mixed at a 1:1 ratio and co-cultured with SCC152 cells at a 1:1 ratio for 8 hours. Phagocytosis of target SCC152 cells by CER-transduced CD4+ T cells was analyzed by fluorescence microscopy. […] The horizontal axis represents the % area of CER-transduced CD4+ T cells having engulfment or % area of the CER-transduced CD4+ T cells taken up by target SCC152 cells. This measure was rarely above 40% across CER types tested. The vertical axis represents the proportion of CER-transduced CD4+ T cells that were phagocytic. For CER104, about 20% of CER104-transduced CD4+ T cells have more than 10% engulfment. For CER117-transduced CD4+ T cells, less than 10% have more than 10% engulfment.

B1: hCER122: human CER122 construct: Tim4 binding domain, Tim4 transmembrane domain, TLR2 and Dap12 engulfment signaling domains; SEQ ID NO:179 (protein)
chain: ETVVTEVLGHRVTLPCLYSSWSHNSNSMCWGKDQCPYSGCKEALIRTDGMRVTSRKSAKYRLQGTIPRGDVSLTILNPSESDSGVYCCRIEVPGWFNDVKINVRLNLQRASTTTHRTATTTTRRTTTTSPTTTRQMTTTPAALPTTVVTTPDLTTGTPLQMTTIAVFTTANTCLSLTPSTLPEEATGLLTPEPSKEGPILTAESETVLPSDSWSSVESTSADTVLLTSKESKVWDLPSTSHVSMWKTSDSVSSPQPGASDTAVPEQNKTTKTGQMDGIPMSMKNEMPISQLLMIIAPSLGFVLFALFVAFLHRFHGLWYMKMMWAWLQAKRKPRKAPSRNICYDAFVSYSERDAYWVENLMVQELENFNPPFKLCLHKRDFIPGKWIIDNIIDSIEKSHKTVFVLSENFVKSEWCKYELDFSHFRLFDENNDAAILILLEPIEKKAIPQRFCKLRKIMNTKTYLEWPMDEAQREGFWVNLRAAIKSYFLGRLVPRGRGAAEAATRKQRITETESPYQELQGQRSDVYSDLNTQRPYYK
modifications: hCER122
anti-tumor response (bioluminescence) ([1]; CER-modified CD3+ and CD4+ T cells plus 1 mg/kg osimertinib, compared to osimertinib alone): enhanced anti-tumor responses | tumor elimination (bioluminescence) ([1]; CER-modified CD4+ T cells plus 1 mg/kg osimertinib): eliminated tumors | T cell infiltration of tumor, immunofluorescence staining ([1]; day 16, anti-EGFR, anti-CD4, anti-PD1, DAPI): infiltration of PD1+CD4+ T cells (functionally active) into tumor stroma

B2: HPV E7 specific TCR: HPV16 E7 specific TCR (see WO2015/184228), TCRβ and TCRα chains joined by P2A; SEQ ID NO:84; expressed in CD8+ T cells (protein)
chain: MAPGLLCWALLCLLGAGLVDAGVTQSPTHLIKTRGQQVTLRCSPKSGHDTVSWYQQALGQGPQFIFQYYEEEERQRGNFPDRFSGHQFPNYSSELNVNALLLGDSALYLCASSLGWRGGRYNEQFFGPGTRLTVLEDLRNVTPPKVSLFEPSKAEIANKQKATLVCLARGFFPDHVELSWWVNGKEVHSGVCTDPQAYKESNYSYCLSSRLRVSATFWHNPRNHFRCQVQFHGLSEEDKWPEGSPKPVTQNISAEAWGRADCGITSASYQQGVLSATILYEILLGKATLYAVLVSTLVVMAMVKRKNSRAKRSGSGATNFSLLKQAGDVEENPGPMWGVFLLYVSMKMGGTTGQNIDQPTEMTATEGAIVQINCTYQTSGFNGLFWYQQHAGEAPTFLSYNVLDGLEEKGRFSSFLSRSKGYSYLLLKELQMKDSASYLCASVDGNNRLAFGKGNQVVVIPNIQNPEPAVYQLKDPRSQDSTLCLFTDFDSQINVPKTMESGTFITDKCVLDMKAMDSKSNGAIAWSNQTSFTCQDIFKETNATYPSSDVPCDATLTEKSFETDMNLNFQNLLVIVLRILLLKVAGFNLLMTLRLWSS
modifications: HPV16 E7 TCRbeta chain-P2A-TCRalpha chain
notes: HPV16 E7 specific TCR (see WO2015/184228), TCRβ and TCRα chains joined by P2A; expressed in CD8+ T cells
anti-tumor response (bioluminescence) [2]: anti-tumor response

B3: CER126: Chimeric engulfment receptor: Tim4 binding, Tim4 transmembrane, TLR2 and TRAF2 signaling; SEQ ID NO: 169 (protein)
chain: MSKGLLLLWLVTELWWLYLTPAASEDTIIGFLGQPVTLPCHYLSWSQSRNSMCWGKGSCPNSKCNAELLRTDGTRIISRKSTKYTLLGKVQFGEVSLTISNTNRGDSGVYCCRIEVPGWFNDVKKNVRLELRRATTTKKPTTTTRPTTTPYVTTTTPELLPTTVMTTSVLPTTTPPQTLATTAFSTAVTTCPSTTPGSFSQETTKGSAFTTESETLPASNHSQRSMMTISTDIAVLRPTGSNPGILPSTSQLTTQKTTLTTSESLQKTTKSHQINSRQTILIIACCVGFVLMVLLFLAFLHRFHGLWYMKMMWAWLQAKRKPRKAPSRNICYDAFVSYSERDAYWVENLMVQELENFNPPFKLCLHKRDFIPGKWIIDNIIDSIEKSHKTVFVLSENFVKSEWCKYELDFSHFRLFDENNDAAILILLEPIEKKAIPQRFCKLRKIMNTKTYLEWPMDEAQREGFWVNLRAAIKSMAAASVTPPGSLELLQPGFSKTLLGTKLEAKYLCSACRNVLRRPFQAQCGHRYCSFCLASILSSGPQNCAACVHEGIYEEGISILESSSAFPDNAARREVESLPAVCPSDGCTWKGTLKEYESCHEGRCPLMLTECPACKGLVRLGEKERHLEHECPERSLSCRHCRAPCCGADVKAHHEVCPKFPLTCDGCGKKKIPREKFQDHVKTCGKCRVPCRFHAIGCLETVEGEKQQEHEVQWLREHLAMLLSSVLEAKPLLGDQSHAGSELLQRCESLEKKTATFENIVCVLNREVERVAMTAEAC
modifications: CER126, amino acids 1-22 are signal peptide
engulfment of SCC152 target cells seen in fluorescent micrographs (SCC152 cells): engulfed
